Assays:
[1] = tryptophan fluorescence, urea dissociation of multimeric peptide complexes, 5 µM peptide
[2] = tryptophan fluorescence, urea dissociation of multimeric peptide complexes, 25 µM peptide
[3] = target: S. epidermidis delta-haemolysin (Staphylococcus epidermidis); experiment: as above
[4] = target: S. epidermidis delta-haemolysin (Staphylococcus epidermidis); experiment: tryptophan fluorescence, urea dissociation of multimeric peptide complexes, 5 µM peptide

Substance	midpoint of urea unfolding curve (5 µM peptide) [1]	midpoint of urea unfolding curve (25 µM peptide) [2]	deltaG (H2O) (25 µM peptide) [3]	deltaG (H2O) (5 µM peptide) [4]
S. epidermidis delta-haemolysin	The midpoints of the unfolding curves of 5 µM and 25 µM were 2.14 and 3.20M urea	The midpoints of the unfolding curves of 5 µM and 25 µM were 2.14 and 3.20M urea	–	–
S. epidermidis delta-haemolysin (peptide)	–	–	1.57 kcal/mol	1.43 kcal/mol

— patent publication US20210244785A1
